Target: T1, protease-activated receptor 1 (PAR1), rat, endogenous in hippocampal neurons (rat, UniProt P26824 46-432)
T1 sequence (looked up): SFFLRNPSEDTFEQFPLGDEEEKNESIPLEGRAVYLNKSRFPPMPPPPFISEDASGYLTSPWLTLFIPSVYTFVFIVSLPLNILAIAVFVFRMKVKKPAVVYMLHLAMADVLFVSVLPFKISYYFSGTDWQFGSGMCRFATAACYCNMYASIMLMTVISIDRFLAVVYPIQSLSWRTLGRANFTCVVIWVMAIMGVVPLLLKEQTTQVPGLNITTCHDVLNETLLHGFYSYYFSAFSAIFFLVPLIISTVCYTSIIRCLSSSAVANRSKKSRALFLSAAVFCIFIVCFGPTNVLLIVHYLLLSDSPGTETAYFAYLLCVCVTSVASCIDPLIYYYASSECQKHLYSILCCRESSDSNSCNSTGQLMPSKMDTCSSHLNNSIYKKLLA
Assay: cell-based or functional assay

SFLLRN was tested, and the “potentiation of the response to NMDA plus glycine in CA1 pyramidal cells, 30 micromolar SFLLRN” value was 1.76 fold.

— US20080125498A1 (published 2008)
